Measured values from EP1900816A2.
Each block holds one molecule with its values, some of them ahead of it.

Tests used:
[1] = target: B7-1 on the surface of mouse cells (WEHI 231, undifferentiated ES cells) (mouse) (UniProt Q00609); experiment: flow cytometry, titration on WEHI 231 cells, which carry both B7-1 and B7-2
[2] = target: T1, B7-2 on the surface of WEHI 231 cells (mouse) (UniProt P42082); experiment: as above
T1 sequence (looked up): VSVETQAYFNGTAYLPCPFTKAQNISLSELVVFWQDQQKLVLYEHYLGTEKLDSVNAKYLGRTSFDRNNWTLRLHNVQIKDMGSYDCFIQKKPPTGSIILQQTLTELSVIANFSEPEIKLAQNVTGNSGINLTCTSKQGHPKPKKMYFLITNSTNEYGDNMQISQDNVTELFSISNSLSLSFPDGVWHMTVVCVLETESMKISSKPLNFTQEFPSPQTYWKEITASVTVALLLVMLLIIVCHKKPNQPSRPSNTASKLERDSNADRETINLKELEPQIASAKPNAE

[3] = target: ICOS-ligand (GL50) on the surface of mouse cells (WEHI 231, undifferentiated ES cells, splenocytes) (mouse) (UniProt Q9JHJ8); experiment: flow cytometry, titration on WEHI 231 cells
[4] = target: ICOS-ligand (GL50) on the surface of mouse cells (WEHI 231, undifferentiated ES cells, splenocytes) (mouse) (UniProt Q9JHJ8); experiment: flow cytometry, indirect staining of undifferentiated CCE ES cells
[5] = target: ICOS-ligand (GL50) on the surface of mouse cells (WEHI 231, undifferentiated ES cells, splenocytes) (mouse) (UniProt Q9JHJ8); experiment: two-colour flow cytometry, Balb/C splenocytes, cells stained by anti-CD3
[6] = target: ICOS-ligand (GL50) on the surface of mouse cells (WEHI 231, undifferentiated ES cells, splenocytes) (mouse) (UniProt Q9JHJ8); experiment: two-colour flow cytometry, Balb/C splenocytes, cells stained by anti-CD4
[7] = target: ICOS-ligand (GL50) on the surface of mouse cells (WEHI 231, undifferentiated ES cells, splenocytes) (mouse) (UniProt Q9JHJ8); experiment: two-colour flow cytometry, Balb/C splenocytes, cells stained by anti CD40
[8] = target: ICOS-ligand (GL50) on the surface of mouse cells (WEHI 231, undifferentiated ES cells, splenocytes) (mouse) (UniProt Q9JHJ8); experiment: two-colour flow cytometry, Balb/C splenocytes, cells stained by anti CD69
[9] = target: ICOS-ligand (GL50) on the surface of mouse cells (WEHI 231, undifferentiated ES cells, splenocytes) (mouse) (UniProt Q9JHJ8); experiment: two-colour flow cytometry, Balb/C splenocytes, cells stained by anti-CD19
[10] = target: ICOS-ligand (GL50) on the surface of mouse cells (WEHI 231, undifferentiated ES cells, splenocytes) (mouse) (UniProt Q9JHJ8); experiment: two-colour flow cytometry, Balb/C splenocytes, cells stained by anti-CD24
[11] = target: ICOS-ligand (GL50) on the surface of mouse cells (WEHI 231, undifferentiated ES cells, splenocytes) (mouse) (UniProt Q9JHJ8); experiment: two-colour flow cytometry, Balb/C splenocytes, cells stained by anti-CD8a
[12] = target: ICOS-ligand (GL50) on the surface of mouse cells (WEHI 231, undifferentiated ES cells, splenocytes) (mouse) (UniProt Q9JHJ8); experiment: two-colour flow cytometry, RAG1-/- splenocytes, cells stained by anti-CD4
[13] = target: ICOS-ligand (GL50) on the surface of mouse cells (WEHI 231, undifferentiated ES cells, splenocytes) (mouse) (UniProt Q9JHJ8); experiment: two-colour flow cytometry, Balb/C splenocytes, cells stained by anti-CD11B
[14] = target: ICOS-ligand (GL50) on the surface of mouse cells (WEHI 231, undifferentiated ES cells, splenocytes) (mouse) (UniProt Q9JHJ8); experiment: two-colour flow cytometry, Balb/C splenocytes, cells stained by anti-CD11C
[15] = target: ICOS-ligand (GL50) on the surface of mouse cells (WEHI 231, undifferentiated ES cells, splenocytes) (mouse) (UniProt Q9JHJ8); experiment: two-colour flow cytometry, RAG1-/- splenocytes, cells stained by anti CD69
[16] = target: ICOS-ligand (GL50) on the surface of mouse cells (WEHI 231, undifferentiated ES cells, splenocytes) (mouse) (UniProt Q9JHJ8); experiment: two-colour flow cytometry, RAG1-/- splenocytes, cells stained by anti-CD24
[17] = target: ICOS-ligand (GL50) on the surface of mouse cells (WEHI 231, undifferentiated ES cells, splenocytes) (mouse) (UniProt Q9JHJ8); experiment: two-colour flow cytometry, Balb/C splenocytes, cells stained by anti-pan NK
[18] = target: ICOS-ligand (GL50) on the surface of mouse cells (WEHI 231, undifferentiated ES cells, splenocytes) (mouse) (UniProt Q9JHJ8); experiment: two-colour flow cytometry, RAG1-/- splenocytes, cells stained by anti-CD11B
[19] = target: ICOS-ligand (GL50) on the surface of mouse cells (WEHI 231, undifferentiated ES cells, splenocytes) (mouse) (UniProt Q9JHJ8); experiment: two-colour flow cytometry, RAG1-/- splenocytes, cells stained by anti-CD11C
[20] = target: ICOS-ligand (GL50) on the surface of mouse cells (WEHI 231, undifferentiated ES cells, splenocytes) (mouse) (UniProt Q9JHJ8); experiment: two-colour flow cytometry, RAG1-/- splenocytes, cells stained by anti-pan NK
[21] = target: ICOS-ligand (GL50) on the surface of mouse cells (WEHI 231, undifferentiated ES cells, splenocytes) (mouse) (UniProt Q9JHJ8); experiment: two-colour flow cytometry, Balb/C splenocytes, cells stained by anti class II
[22] = target: ICOS-ligand (GL50) on the surface of mouse cells (WEHI 231, undifferentiated ES cells, splenocytes) (mouse) (UniProt Q9JHJ8); experiment: two-colour flow cytometry, RAG1-/- splenocytes, cells stained by anti class II
[23] = target: ICOS-ligand (GL50) on the surface of mouse cells (WEHI 231, undifferentiated ES cells, splenocytes) (mouse) (UniProt Q9JHJ8); experiment: two-colour flow cytometry, Balb/C splenocytes, cells stained by anti-CD45R/B220
[24] = target: ICOS-ligand (GL50) on the surface of mouse cells (WEHI 231, undifferentiated ES cells, splenocytes) (mouse) (UniProt Q9JHJ8); experiment: two-colour flow cytometry, RAG1-/- splenocytes, cells stained by anti-CD45R/B220

Sequence of UniProt Q9JHJ8 (Q9JHJ8 44-322): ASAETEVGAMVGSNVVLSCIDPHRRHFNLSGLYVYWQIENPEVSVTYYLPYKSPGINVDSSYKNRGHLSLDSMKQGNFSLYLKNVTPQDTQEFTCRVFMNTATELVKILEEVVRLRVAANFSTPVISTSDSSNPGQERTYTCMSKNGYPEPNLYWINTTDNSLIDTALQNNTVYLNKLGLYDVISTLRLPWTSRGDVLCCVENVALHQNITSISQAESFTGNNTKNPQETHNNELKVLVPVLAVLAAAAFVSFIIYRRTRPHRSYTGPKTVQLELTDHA
Sequence of UniProt Q00609 (Q00609 38-306): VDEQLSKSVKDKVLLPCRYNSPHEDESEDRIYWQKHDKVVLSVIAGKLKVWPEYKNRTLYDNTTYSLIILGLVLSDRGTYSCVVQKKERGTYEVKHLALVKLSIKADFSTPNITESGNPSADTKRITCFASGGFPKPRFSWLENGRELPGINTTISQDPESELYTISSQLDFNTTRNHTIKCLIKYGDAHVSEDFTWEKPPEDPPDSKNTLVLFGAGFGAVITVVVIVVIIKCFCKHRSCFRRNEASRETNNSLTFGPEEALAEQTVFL

concentration at which staining was clearly detectable [1]: 8 ng/mL | fold binding affinity against mICOS-mIgG2am binding to GL50 on WEHI cells [1]: > 100 fold | concentration at which staining was clearly detectable [2]: 8 ng/mL | fold binding affinity against mICOS-mIgG2am binding to GL50 on WEHI cells [2]: > 100 fold
Molecule: mCTLA4-mIgG2am fusion protein (from UniProt P09793 36-161) (Fc fusion)

concentration from which staining was minimally detectable [3]: 1 µg/mL | fluorescence shift over background [4]: 0.5 log | % ICOS-lg positive [5]: 10% | % ICOS-lg positive [6]: 8% | % ICOS-lg positive [7]: 97% | % ICOS-lg positive [8]: 25% | % ICOS-lg positive [9]: 97% | % ICOS-lg positive [10]: 94% | % ICOS-lg positive [11]: 10% | % ICOS-lg positive [12]: 45% | % ICOS-lg positive [13]: 26% | % ICOS-lg positive [14]: 43% | % ICOS-lg positive [15]: 5% | % ICOS-lg positive [16]: 28% | % ICOS-lg positive [17]: 20% | % ICOS-lg positive [18]: 31% | % ICOS-lg positive [19]: 55% | % ICOS-lg positive [20]: 3% | % ICOS-lg positive [21]: 95% | % ICOS-lg positive [22]: 3% | % ICOS-lg positive [23]: 97% | % ICOS-lg positive [24]: 5%
B1: mICOS-mIgG2am fusion protein (Fc fusion)
chain: EINGSADHRMFSFHNGGVQISCKYPETVQQLKMRLFREREVLCELTKTKGSGNAVSIKNPMLCLYHLSNNSVSFFLNNPDSSQGSYYFCSLSIFDPPPFQERNLSGGYLHIYESQLCCQLKLEPRGPTIKPCPPCKCPAPNLEGGPSVFIFPPKIKDVLMISLSPIVTCVVVDVSEDDPDVQISWFVNNVEVHTAQTQTHREDYNSTLRVVSALPIQHQDWMSGKAFACAVNNKDLPAPIERTISKPKGSVRAPQVYVLPPPEEEMTKKQVTLTCMVTDFMPEDIYVEWTNNGKTELNYKNTEPVLDSDGSYFMYSKLRVEKKNWVERNSYSCSVVHEGLHNHHTTKSFSRTPGK
